Laboratory results from patent US20210213134A1, “THIOL-BASED MULTIVALENT DRUG DELIVERY COMPOSITIONS” (ORPRO THERAPEUTICS, INC., priority 2018, published 2021).
Read-outs that look alike come from different tables or passages of the source.

Tests used:
[1] = target: insulin (fully disulfide-bonded heterodimeric insulin); experiment: cell-based or functional assay
[2] = target: insulin (fully disulfide-bonded heterodimeric insulin); experiment: cell-based or functional assay; remark: listed apart in the source

Row | % reduction C35STRX (insulin heterodimer peak, RP-HPLC), 0 min [1] [%] | % reduction C35STRX (insulin heterodimer peak, RP-HPLC), 90 min [1] [%] | column 'C35STRX' (taken as insulin heterodimer peak area, RP-HPLC), 0 min [1] | column 'C35STRX' (taken as insulin heterodimer peak area, RP-HPLC), 90 min [1] | % reduction C35STRX (insulin heterodimer peak, RP-HPLC), 90 min [2] [%] | column 'C35STRX' (taken as insulin heterodimer peak area, RP-HPLC), 0 min [2] | column 'C35STRX' (taken as insulin heterodimer peak area, RP-HPLC), 90 min [2] | % reduction Azido-C35STRX (insulin heterodimer peak, RP-HPLC), 90 min [1] [%] | attenuation of the ability to reduce insulin disulfides vs. unconjugated monocysteinic thioredoxin [1] [%] | column 'Azido-C35STRX' (taken as insulin heterodimer peak area, RP-HPLC), 0 min [1] | column 'Azido-C35STRX' (taken as insulin heterodimer peak area, RP-HPLC), 90 min [1] | % reduction Azido-C35STRX (insulin heterodimer peak, RP-HPLC), 0 min [2] [%] | % reduction Azido-C35STRX (insulin heterodimer peak, RP-HPLC), 90 min [2] [%] | column 'Azido-C35STRX' (taken as insulin heterodimer peak area, RP-HPLC), 0 min [2] | column 'Azido-C35STRX' (taken as insulin heterodimer peak area, RP-HPLC), 90 min [2] | Binder
1 | 0 | 99.4 | 8520 | 50.2 | 97.7 | 10600 | 243 | – | – | – | – | – | – | – | – | reduced (active) C35STRX (enzyme, active site Cys32 in the reduced state) MVKQIESKTAFQEALDAAGDKLVVVDFSATWCGPSKMIKPFFHSLSEKYSNVIFLEVDVDDCQDVASECEVKCMPTFQFFKKGQKVGEFSGANKEKLEATINELV
2 | – | – | – | – | – | – | – | 32.7 | 70 | 8960 | 6030 | 0 | 33.1 | 10200 | 6840 | Azido-C35STRX (C35STRX with azido-PEG linkers on Lys residues, reduced) (enzyme, azido-PEG chains (NHS-PEG4-Azide) on Lys residues, average of 11 per molecule; active site Cys reduced with DTT) MVKQIESKTAFQEALDAAGDKLVVVDFSATWCGPSKMIKPFFHSLSEKYSNVIFLEVDVDDCQDVASECEVKCMPTFQFFKKGQKVGEFSGANKEKLEATINELV
